According to article doi:10.1101/2020.03.16.993006 (bioRxiv, 2020):
Like-named read-outs stand apart in the source and are kept apart here.

Experiments:
[1] = biological target: Rhodamine green-hepcidin (human); assay: fluorescence polarisation
[2] = biological target: Rhodamine green-hepcidin (human); assay: fluorescence polarisation; remark: listed apart in the source
[3] = biological target: Rhodamine green-hepcidin (human); assay: fluorescence polarisation; remark: listed apart in the source
[4] = biological target: Rhodamine green-hepcidin (human); assay: fluorescence polarisation; remark: listed apart in the source
[5] = biological target: human ferroportin (FPN), wild type, reconstituted in lipid nanodisc (human, UniProt Q9NP59); assay: cryo-EM structure

B1: human ferroportin (FPN), wild type, reconstituted in lipid nanodisc (natural protein)
chain: MTRAGDHNRQRGCCGSLADYLTSAKFLLYLGHSLSTWGDRMWHFAVSVFLVELYGNSLLLTAVYGLVVAGSVLVLGAIIGDWVDKNARLKVAQTSLVVQNVSVILCGIILMMVFLHKHELLTMYHGWVLTSCYILIITIANIANLASTATAITIQRDWIVVVAGEDRSKLANMNATIRRIDQLTNILAPMAVGQIMTFGSPVIGCGFISGWNLVSMCVEYVLLWKVYQKTPALAVKAGLKEEETELKQLNLHKDTEPKPLEGTHLMGVKDSNIHELEHEQEPTCASQMAEPFRTFRDGWVSYYNQPVFLAGMGLAFLYMTVLGFDCITTGYAYTQGLSGSILSILMGASAITGIMGTVAFTWLRRKCGLVRTGLISGLAQLSCLILCVISVFMPGSPLDLSVSPFEDIRSRFIQGESITPTKIPEITTEIYMSNGSNSANIVPETSPESVPIISVSLLFAGVIAARIGLWSFDLTVTQLLQENVIESERGIINGVQNSMNYLLDLLHFIMVILAPNPEAFGLLVLISVSFVAMGHIMYFRFAQNTLGNKLFACGPDAKEVRKENQANTSVV
B1 gave a Kd [1] of 2.5 nM, a Kd [2] of 210 nM and a Kd [3] of 7.8 nM. For the same binder, the Kd [4] was 7.7 nM.

B2: Fab45D8 (Fab, V domains shown)
VH: EVQLQESGPGLAKPSQTLSLTCSVTGSSITSDYWNWIRKFPGNKLEYMGYISYSGSTYYNPSLKSQISITRDTSKNHYYLQLNSVTTEDTATYYCARQGLRNWYFDVWGTGTTVTVSS
VL: DIVLTQSPASLPVSLGQRATISCRASKSVSASAYSYMHWYQQKPGQPPKPLIYLASNLESGVPARFSGSGSGTDFTLNIHPVEEEDAATYYCQHNRELPYTFGGGTKLEIK
B2: binds [5].
